Assay results from PMC10397247.

Assays:
Assay in all cases: two-hybrid library CCNG1;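 note: natural log of median RNA to DNA barcode read ratio; higher means stronger binding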
4H3907-bN = molecular target: T1, 4H3907-bN
T1 chain: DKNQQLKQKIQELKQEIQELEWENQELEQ

4H3601-bN = molecular target: T2, 4H3601-bN
T2 chain: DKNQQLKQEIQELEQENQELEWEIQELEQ

4H4038-bN = molecular target: T3, 4H4038-bN
T3 chain: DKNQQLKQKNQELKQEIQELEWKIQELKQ

4H363-bN = molecular target: T4, 4H363-bN
T4 chain: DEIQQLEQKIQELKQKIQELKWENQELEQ

4H3961-bN = molecular target: T5, 4H3961-bN
T5 chain: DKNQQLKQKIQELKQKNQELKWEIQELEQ

4H344-bN = molecular target: T6, 4H344-bN
T6 chain: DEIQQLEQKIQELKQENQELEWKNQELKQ

4H470-bN = molecular target: T7, 4H470-bN
T7 chain: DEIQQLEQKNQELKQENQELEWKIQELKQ

4H3926-bH = molecular target: T8, 4H3926-bH
T8 chain: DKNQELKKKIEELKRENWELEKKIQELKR

4H850-bH = molecular target: T9, 4H850-bH
T9 chain: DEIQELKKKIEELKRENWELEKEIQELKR

4H3175-bH = molecular target: T10, 4H3175-bH
T10 chain: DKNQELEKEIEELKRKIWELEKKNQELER

4H3858-bH = molecular target: T11, 4H3858-bH
T11 chain: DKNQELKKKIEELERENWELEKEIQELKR

4H3070-bA = molecular target: T12, 4H3070-bA
T12 chain: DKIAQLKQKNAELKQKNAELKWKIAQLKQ

4H3462-bH = molecular target: T13, 4H3462-bH
T13 chain: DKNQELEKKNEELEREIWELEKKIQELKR

4H570-bH = molecular target: T14, 4H570-bH
T14 chain: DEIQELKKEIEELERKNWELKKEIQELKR

4H1544-bH = molecular target: T15, 4H1544-bH
T15 chain: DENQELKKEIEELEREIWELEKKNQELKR

4H3162-bH = molecular target: T16, 4H3162-bH
T16 chain: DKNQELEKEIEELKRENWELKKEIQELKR

4H591-bH = molecular target: T17, 4H591-bH
T17 chain: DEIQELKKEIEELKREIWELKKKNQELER

4H3613-bH = molecular target: T18, 4H3613-bH
T18 chain: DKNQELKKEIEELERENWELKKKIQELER

4H3817-bH = molecular target: T19, 4H3817-bH
T19 chain: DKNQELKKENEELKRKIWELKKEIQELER

4H1985-bH = molecular target: T20, 4H1985-bH
T20 chain: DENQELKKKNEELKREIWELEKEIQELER

4H626-bH = molecular target: T21, 4H626-bH
T21 chain: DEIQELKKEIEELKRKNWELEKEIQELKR

4H906-bH = molecular target: T22, 4H906-bH
T22 chain: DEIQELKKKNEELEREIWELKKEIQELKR

4H3628-bH = molecular target: T23, 4H3628-bH
T23 chain: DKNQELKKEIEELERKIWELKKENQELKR

4H1710-bH = molecular target: T24, 4H1710-bH
T24 chain: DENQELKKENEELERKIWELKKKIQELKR

4H3298-bH = molecular target: T25, 4H3298-bH
T25 chain: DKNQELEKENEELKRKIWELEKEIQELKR

4H1899-bH = molecular target: T26, 4H1899-bH
T26 chain: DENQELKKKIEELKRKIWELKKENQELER

4H3974-bH = molecular target: T27, 4H3974-bH
T27 chain: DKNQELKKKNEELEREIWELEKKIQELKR

4H3277-bH = molecular target: T28, 4H3277-bH
T28 chain: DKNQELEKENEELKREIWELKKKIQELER

4H3497-bH = molecular target: T29, 4H3497-bH
T29 chain: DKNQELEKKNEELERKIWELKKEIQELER

B1: 4H3601-bN (peptide)
chain: DKNQQLKQEIQELEQENQELEWEIQELEQ
interaction score (4H3907-bN): -1.37
interaction score (4H3601-bN): -1.57
interaction score (4H4038-bN): -1.28

B2: 4H344-bN (peptide)
chain: DEIQQLEQKIQELKQENQELEWKNQELKQ
interaction score (4H3907-bN): -2.07
interaction score (4H363-bN): -2.06
interaction score (4H3961-bN): 0.044
interaction score (4H344-bN): 0.297
interaction score (4H470-bN): 0.132

B3: 4H1544-bH (peptide)
chain: DENQELKKEIEELEREIWELEKKNQELKR
interaction score (4H3926-bH): 0.243
interaction score (4H850-bH): 1.29
interaction score (4H3175-bH): -0.419
interaction score (4H3858-bH): 0.651
interaction score (4H3070-bA): 0.826
interaction score (4H3462-bH): 0.608
interaction score (4H570-bH): 0.232
interaction score (4H1544-bH): 0.599
interaction score (4H3162-bH): 0.879
interaction score (4H591-bH): 1.2
interaction score (4H3613-bH): 0.423
interaction score (4H3817-bH): 0.913
interaction score (4H1985-bH): 0.533
interaction score (4H626-bH): -0.838
interaction score (4H906-bH): 0.0592
interaction score (4H3628-bH): -0.0215
interaction score (4H1710-bH): 0.154
interaction score (4H3298-bH): 0.51
interaction score (4H1899-bH): 1.61
interaction score (4H3974-bH): 0.61
interaction score (4H3277-bH): 0.893
interaction score (4H3497-bH): 0.211
